Kd data for one substance are collected here from patent US20240003881A1.

What is called Kd is a measure of binding affinity in units of concentration. A low value points to higher affinity.

Test [1] deals with β10-S-β10 (SARS-CoV-2) (UniProt P0DTC2). The test can be described thus: tNLuc split-luciferase assay in solution with β9-G; CR3022 dose response, allosteric sigmoidal fit.
The target in a further test is β10-S (SARS-CoV-2) (UniProt P0DTC2). The description is as above.
The target of test [2] is β10-S-β10 (SARS-CoV-2) (UniProt P0DTC2). The test can be described thus: tNLuc assay (β9-G/β10-S-β10); CR3022 dose response with 0-100 µg/mL human IgG, allosteric noncompetitive inhibition model.

In the case of CR3022 (antibody), the results for the Kd in the test with β10-S-β10 (SARS-CoV-2) [1], with β10-S (SARS-CoV-2) and with β10-S-β10 (SARS-CoV-2) [2] were 0.23 µg/mL, 0.42 µg/mL and 0.22 µg/mL, respectively.
